Measured values published in patent publication US20070207532.

Tests used:
[1] = biological target: AGT mutant of Example 1 (GST fusion) Lys125Ala, Ala127Thr, Arg128Ala, Asn157Gly, Ser159Glu (Homo sapiens) (UniProt P16455); conditions: co-purified DNA estimated by A280/A260 after purification in 50 mM phosphate, 0.1 M NaCl, 1 mM DTT
[2] = biological target: PGEG-hAGT (GST fusion) Asn157Gly, Ser159Glu (Homo sapiens) (UniProt P16455); test: inhibition; conditions: BG-Cy3 reaction rate with 25 ug/ml DNA
Chain of PGEG-hAGT (GST fusion) Asn157Gly, Ser159Glu (Homo sapiens) (P16455 whole entry N157G/S159E, the tested form may be a part): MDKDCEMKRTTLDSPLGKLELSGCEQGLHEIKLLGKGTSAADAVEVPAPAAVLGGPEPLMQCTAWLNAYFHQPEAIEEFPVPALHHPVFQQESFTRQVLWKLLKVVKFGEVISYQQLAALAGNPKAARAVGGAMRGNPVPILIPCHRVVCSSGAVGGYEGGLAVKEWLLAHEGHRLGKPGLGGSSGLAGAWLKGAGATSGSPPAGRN

Chain of AGT mutant of Example 1 (GST fusion) Lys125Ala, Ala127Thr, Arg128Ala, Asn157Gly, Ser159Glu (Homo sapiens) (P16455 whole entry K125A/A127T/R128A/N157G/S159E, the tested form may be a part): as the sequence (P16455 whole entry N157G/S159E, the tested form may be a part) above, with K125A, A127T, R128A counted along it

Substance	binding signal [1] [fold reduced]	activity (fold rate reduction) [2]
co-purified E. coli DNA	> 10	
salmon sperm DNA		5
